Measured values from patent CN115772221A (BOAOXIN BIOTECHNOLOGY NANJING CO LTD, dated 2023).

Target: T1, 重组人CD47-his蛋白 (ACRO biosystems, cat#CD7-H5227, MW 15.6 kDa) (human, UniProt Q08722 19-139, biotin-labelled in the ELISAs (examples 3.1, 4.1, 4.2); unlabelled in Biacore)
T1 construct: Bought protein; also called 人CD47蛋白; 人CD47-生物素; not shown: His tag
Experiment: SPR (Biacore T200), antibody captured by goat anti-mouse IgG, CD47-his in solution

T1 sequence (Q08722 19-139 limits assumed): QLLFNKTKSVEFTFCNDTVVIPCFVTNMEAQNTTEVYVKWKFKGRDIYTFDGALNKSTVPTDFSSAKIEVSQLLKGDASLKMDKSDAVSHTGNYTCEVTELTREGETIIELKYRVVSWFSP

B1: 小鼠抗CD47单克隆抗体1D2 (antibody, V domains shown)
VH: EVQLQQSGPELVKPGASVRISCKTSGYKFTDYNIHWVKQSHGKSLEYIGYIYPYNISSAYNQKFKSKATVTVDNSSSTSYMELRSLTSEDSAVYYCARGGWRAMDYWGQGTSVTVSS
VL: AVLMTQSPLSLPVSLGDQASLSCRSSQNIVHTNGYTYLAWYLQRPGQSPKLLIYKVSNRFSGVPDRFSGSGSGTDFTLRISRVEAEDLGVYYCFQGSHVPWTFGGGTKLEIK
notes: Tested as a mouse monoclonal antibody purified from a hybridoma; 1D2 is the only named antibody of the invention; also called 本发明的单克隆抗体1D2; 本发明的抗体1D2
Q: Does B1 bind?
A: Result: binds
